This note sets out measurements from patent US20260207767A1 (ANAVEON, published 2026).

The target in assay [1] is T1, hPD-1 (ECD-His, produced in house) (human, UniProt Q15116 25-170).
T1 construct: extracellular domain; also called coated hPD-1
As to the kind of experiment: binding ELISA. The method, then: 60 nM of hPD-1 (ECD-His, produced in house) was coated on a Maxisorp plate (Nunc) overnight at 4° C. and blocked with 5% BSA in PBS. […] Absorbance signal after adding TMB was read with a plate reader (Spectramax ID3) at 450 nm. EC50 values were determined by blotting absorbance against concentration (Graphpad Prism, sigmoidal curve fit, 4 PL, X-axis is log).

Assay [2] has as its target T2, IL-2R CD122-CD132 on Jurkat-PD1+CD122+ cells (UniProt P14784 27-551; P31785 23-369).
T2 sequence (looked up) 1: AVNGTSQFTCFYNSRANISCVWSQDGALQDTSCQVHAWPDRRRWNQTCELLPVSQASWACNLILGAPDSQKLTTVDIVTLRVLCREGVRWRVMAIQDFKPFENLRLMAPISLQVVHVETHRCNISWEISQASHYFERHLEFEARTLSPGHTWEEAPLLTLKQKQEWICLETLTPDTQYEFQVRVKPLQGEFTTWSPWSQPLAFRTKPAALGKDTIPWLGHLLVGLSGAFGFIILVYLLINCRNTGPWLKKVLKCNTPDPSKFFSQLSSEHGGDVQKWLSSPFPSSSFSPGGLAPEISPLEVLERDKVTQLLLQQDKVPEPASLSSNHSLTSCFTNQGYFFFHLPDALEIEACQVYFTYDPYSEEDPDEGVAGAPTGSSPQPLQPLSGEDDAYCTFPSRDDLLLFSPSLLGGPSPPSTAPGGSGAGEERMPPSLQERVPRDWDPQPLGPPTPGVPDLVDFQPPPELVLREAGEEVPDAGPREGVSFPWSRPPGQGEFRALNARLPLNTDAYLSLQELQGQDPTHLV
T2 sequence (looked up) 2: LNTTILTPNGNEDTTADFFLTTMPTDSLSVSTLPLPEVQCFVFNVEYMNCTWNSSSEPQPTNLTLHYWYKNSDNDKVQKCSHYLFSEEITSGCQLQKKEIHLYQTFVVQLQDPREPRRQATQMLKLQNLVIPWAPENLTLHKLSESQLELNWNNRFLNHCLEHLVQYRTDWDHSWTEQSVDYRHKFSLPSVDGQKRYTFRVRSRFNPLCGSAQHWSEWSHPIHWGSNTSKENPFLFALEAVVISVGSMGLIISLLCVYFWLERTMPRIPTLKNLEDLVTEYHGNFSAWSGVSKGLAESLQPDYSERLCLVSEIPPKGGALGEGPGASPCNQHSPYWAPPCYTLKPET
As to the kind of experiment: cell-based or functional assay.

Assay [3] has as its target T3, cynomolgus PD-1 expressed on cells (cynomolgus monkey, UniProt B0LAJ3 25-288).
T3 construct: also called CHO-S Cyno-PD-1; 293:cyPD1
The experiment in a line: flow cytometry, HEK293 cyPD1.

For assay [4], the target named is T4, human PD-1 expressed on cells (human, UniProt Q15116 25-288).
T4 construct: whole, on cells; cell line named under assay; also called CHO-S hPD-1; Raji PD-1
The experiment in a line: flow cytometry, HEK293 huPD1.

The target of assay [5] is T5, cynoPD-1 His (AcroBiosystems PD1-C5223) (cynomolgus monkey, UniProt B0LAJ3 25-170).
T5 construct: also called cPD-1; cynomolgus PD-1 His-tagged
As to the kind of experiment: BLI (legend: SPR), Ab on sensor.

The target of the next assay is T6, hPD-1 His-tagged (human, UniProt Q15116 25-167).
T6 construct: also called recombinant hPD-1 (AcroBio)
The experiment in a line: BLI (legend: SPR), Ab on sensor.

The target in assay [6] is T7, recombinant human IL-2 (human, UniProt P60568 21-153).
T7 construct: bought (BLI: Acro Biosystems IL2-H4113); also called rhIL-2; hIL-2
The experiment in a line: BLI, antibody immobilized; BLI: antibody immobilized on amine reactive sensors, rhIL-2 in solution as a dilution series. The method, then: (§1) Binding to IL-2 was first tested by ELISA using a serial dilution of antibodies on coated IL-2. Recombinant human IL-2 was coated on Maxisorp ELISA plates (Invitrogen, 44-2404-21) at 5 μg/ml, 4° C. overnight. […] The antibodies were detected with anti-human IgG-Peroxidase (Sigma, A0170). After addition and blockade of the chemiluminescent substrate, absorption was read (A₄₅₀-A₅₇₀ at plate reader, Spectramax 03). EC₅₀ values were obtained by plotting Absorbance vs. log(Concentration) and sigmoidal 4-PL fitting using GraphPad Prism (Table 1). […] Antibodies were immobilized on amine reactive (2nd Generation) sensors (ForteBio, 18-5092). Association (600s) and dissociation (900s) of a dilution series of recombinant IL-2 (Acro Biosystems, IL2-H4113) were measured on the antibody-coated biosensors on an Octet-System (Octet RED, ForteBio). KD values were obtained by fitting the kinetics data with the ForteBio Data Analysis Software (8.2).

Assay [7] concerns the target T8, recombinant hPD-1 (construct not stated) (human, UniProt Q15116 25-167, limits assumed).
T8 construct: also called huPD-1; Human PD1
The experiment in a line: BLI, supernatants. An excerpt: In order to remove an N-glycosylation site present in the CDR-L1, mutations were inserted in the CDR-L1 of 21A08. The first asparagine ([…], N) in CDR-L1, was replaced by a serine (Ser, S), Glutamine (Gln, Q), or Alanine (Ala, A).

Assay [8] concerns the target T7, recombinant human IL-2. The experiment in a line: ELISA, coated IL-2. The method, then: as §1
The target of assay [9] is T7, recombinant human IL-2. As to the kind of experiment: BLI, antibody immobilized. The procedure: as §1
Assay [10] has as its target T9, CD122/CD132 complex (His-tagged, Acro Biosystem ILG-H5283) (UniProt P14784 27-239; P31785 23-254, limits assumed).
T9 construct: bought; also called dimeric IL-2 receptor
T9 sequence (looked up) 1: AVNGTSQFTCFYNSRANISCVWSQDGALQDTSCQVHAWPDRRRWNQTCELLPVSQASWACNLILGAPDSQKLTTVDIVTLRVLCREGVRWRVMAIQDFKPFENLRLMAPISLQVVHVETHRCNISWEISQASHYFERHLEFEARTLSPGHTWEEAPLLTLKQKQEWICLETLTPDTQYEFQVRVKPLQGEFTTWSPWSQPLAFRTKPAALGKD
T9 sequence (looked up) 2: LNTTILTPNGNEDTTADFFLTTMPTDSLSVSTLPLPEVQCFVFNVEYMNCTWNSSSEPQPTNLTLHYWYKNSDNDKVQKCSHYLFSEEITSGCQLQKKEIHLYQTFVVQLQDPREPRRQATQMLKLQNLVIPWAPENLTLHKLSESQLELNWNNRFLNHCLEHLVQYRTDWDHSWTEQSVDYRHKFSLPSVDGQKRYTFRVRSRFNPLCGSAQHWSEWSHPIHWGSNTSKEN
As to the kind of experiment: SPR, CD122/CD132 captured on NTA chip. The source says: Binding to the CD122/CD132 complex (His-tagged, Acro Biosystem, Cat #ILG-H5283) of one representative anti-IL-2 antibody/IL-2 fusion (QTY065) was additionally assessed by SPR (BIAcore 3000, v4.1.2; GE Healthcare) and compared to Proleukin. CD122/CD132 was captured on an NTA sensor chip (GE Healthcare). Proleukin or QTY065 Fab were used as analytes.

T5 sequence (B0LAJ3 entry or part of it limits assumed): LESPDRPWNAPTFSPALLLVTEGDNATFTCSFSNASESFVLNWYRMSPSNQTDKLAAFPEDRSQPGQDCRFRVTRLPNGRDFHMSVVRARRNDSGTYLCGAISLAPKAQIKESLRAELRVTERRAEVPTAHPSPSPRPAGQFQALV
T7 sequence (P60568 21-153 limits assumed): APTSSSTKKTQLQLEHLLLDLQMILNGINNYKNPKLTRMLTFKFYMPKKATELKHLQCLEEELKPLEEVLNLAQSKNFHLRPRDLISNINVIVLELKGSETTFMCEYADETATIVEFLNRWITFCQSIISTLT
T6 sequence (Q15116 25-167 limits assumed): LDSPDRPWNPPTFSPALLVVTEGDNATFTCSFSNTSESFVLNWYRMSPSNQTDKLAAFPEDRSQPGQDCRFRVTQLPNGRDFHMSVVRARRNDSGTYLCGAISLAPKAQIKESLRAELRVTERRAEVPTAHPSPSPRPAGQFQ
T4 sequence (Q15116 25-288): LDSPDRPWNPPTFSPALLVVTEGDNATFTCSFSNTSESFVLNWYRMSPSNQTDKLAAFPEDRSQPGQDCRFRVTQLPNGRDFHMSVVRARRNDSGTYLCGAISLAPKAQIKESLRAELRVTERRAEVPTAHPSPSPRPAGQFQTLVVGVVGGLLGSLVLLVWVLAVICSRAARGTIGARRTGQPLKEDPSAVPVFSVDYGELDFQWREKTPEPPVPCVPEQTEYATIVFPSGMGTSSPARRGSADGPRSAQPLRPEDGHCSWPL
T8 sequence (Q15116 25-167 limits assumed): as the sequence (Q15116 25-167 limits assumed) above
T3 sequence (B0LAJ3 entry or part of it limits assumed): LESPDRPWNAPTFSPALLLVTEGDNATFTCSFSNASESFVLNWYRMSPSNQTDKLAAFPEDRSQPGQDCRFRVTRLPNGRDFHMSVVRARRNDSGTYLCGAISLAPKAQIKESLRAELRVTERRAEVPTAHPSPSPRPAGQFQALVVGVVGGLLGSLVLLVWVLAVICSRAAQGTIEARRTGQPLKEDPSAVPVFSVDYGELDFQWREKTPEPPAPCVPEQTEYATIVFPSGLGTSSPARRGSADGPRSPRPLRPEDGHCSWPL
T1 sequence (Q15116 25-170): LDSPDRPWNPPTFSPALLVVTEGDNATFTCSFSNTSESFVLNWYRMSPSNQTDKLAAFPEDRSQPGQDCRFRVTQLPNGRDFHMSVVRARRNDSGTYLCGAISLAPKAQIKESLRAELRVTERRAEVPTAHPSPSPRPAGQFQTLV

B1: PXU588 (bispecific antibody, human IgG1, kappa, L234A L235A)
heavy 1: EVQLLESGGGLVQPGGSLRLSCAASGFTFSINAMTWVRQAPGKGLEWVSTISGSGFSTYYADSLKGRFTISRDNSKNTLYLQMNSLRAEDTAVYYCAKEVYGDYWGQGTLVTVSSASVAAPSVFIFPPSDEQLKSGTASVVCLLNNFYPREAKVQWKVDNALQSGNSQESVTEQDSKDSTYSLSSTLTLSKADYEKHKVYACEVTHQGLSSPVTKSFNRGECDKTHTCPPCPAPEAAGGPSVFLFPPKPKDTLMISRTPEVTCVVVDVSHEDPEVKFNWYVDGVEVHNAKTKPREEQYNSTYRVVSVLTVLHQDWLNGKEYKCKVSNKALAAPIEKTISKAKGQPREPQVYTLPPSREEMTKNQVSLTCLVKGFYPSDIAVEWESNGQPENNYKTTPPVLDSDGSFFLTSKLTVDKSRWQQGNVFSCSVMHEALHNHYTQKSLSLSPGK
light 1: RSVLTQPPSASGTPGQRVSISCSGASSNIGSSSVFWYQQLPGTAPKLLIYSNNQRPSGVPDRFSGSKSGTSASLAISGLRSEDEADYYCAAWDDSLSIWVFGGGTKLTVLSSASTKGPSVFPLAPSSKSTSGGTAALGCLVKDYFPEPVTVSWNSGALTSGVHTFPAVLQSSGLYSLSSVVTVPSSSLGTQTYICNVNHKPSNTKVDKRVEPKSC
heavy 2: EVQLVQSGAEVKKPGESLKISCKGSGYAFTNYLIEWVRQMPGKGLEWMGVINPGSGGTNYNEKFKGQVTISADKSISTAYLQWSSLKASDTAMYYCARWRGEGYYAYFDVWGQGTTVTVSSASTKGPSVFPLAPSSKSTSGGTAALGCLVKDYFPEPVTVSWNSGALTSGVHTFPAVLQSSGLYSLSSVVTVPSSSLGTQTYICNVNHKPSNTKVDKRVEPKSCDKTHTCPPCPAPEAAGGPSVFLFPPKPKDTLMISRTPEVTCVVVDVSHEDPEVKFNWYVDGVEVHNAKTKPREEQYNSTYRVVSVLTVLHQDWLNGKEYKCKVSNKALAAPIEKTISKAKGQPREPQVYTLPPSREEMTKNQVSLYCLVKGFYPSDIAVEWESNGQPENNYKTTPPVLDSDGSFFLYSKLTVDKSRWQQGNVFSCSVMHEALHNHYTQKSLSLSPGK
light 2: not shown
notes: also called IgG CrossMab 21A08A p2 x QTY065
B1: the binding result in assay [1] was “no binding”. Moreover, the “EC50 value for pSTAT5 induction, Jurkat-PD-1+CD122+ cells” value in assay [2] came out at 5.37 nM.

B2: 56H02 (antibody, V domains shown)
VH: QVQLVQSGAEVKKPGASVKVSCKASGYTFTSYFMHWVRQAPGQGLEWMGLINPDGGNTDYAQKFQGRVTMTRDTSTSTVYMELSSLRSEDTAVYYCARDGNYYDSSGYYYPDAFDIWGQGTMVTVSS
VL: SSELTQDPAVSVALGQTVRITCQGDSLRRFYASWYQQKPGQAPVIVIYGKDNRPSGTPDRFSGSTSGNTASLTITGAQAEDEADYYCNSRDSSGTHVVFGGGTKLTVL
notes: used with CH1,2,3 and corresponding CL
Consider B2, for which the EC50 in [3] amounted to 0.0881 nM; in [4], 0.0921 nM. The Kd in [5] worked out at 0.262 nM; with hPD-1 His-tagged, 0.228 nM. The figures for the off-rate constant (koff) (in [5]; in the assay with hPD-1 His-tagged) were 3.67e-05 s⁻¹ and 3.79e-05 s⁻¹, respectively. The kon came out at 140000 M⁻¹ s⁻¹ in assay [5] and 166000 M⁻¹ s⁻¹ with hPD-1 His-tagged.

B3: Antibody B (antibody, human IgG1, kappa, V domains shown)
VH: QVQLVESGGGVVQPGRSLRLSCAASGYTFSSYLIEWVRQAPGKGLEWVAVINPGSGGTNYADSVKGRFTISADKSKNTAYLQMNSLRAEDTAVYYCARWRGDGYYAYFDVWGQGTTVTVSS
VL: EIVLTQSPATLSVSPGERATLSCRASQSVSYDGDSYMNWYQQKPGQAPRLLIYAASNLASGIPARFSGSGSGTEFTLTISSLQSEDAAVYYCQQSNEDPYTFGGGTKVEIKR
For the molecule B3, the Kd with recombinant human IL-2 [6] amounted to 270 nM.

B4: 21A08 (antibody, V domains shown)
VH: EVQLLESGGGLVQPGGSLRLSCAASGFTFSINAMTWVRQAPGKGLEWVSTISGSGFSTYYADSLKGRFTISRDNSKNTLYLQMNSLRAEDTAVYYCAKEVYGDYWGQGTLVTVSS
VL: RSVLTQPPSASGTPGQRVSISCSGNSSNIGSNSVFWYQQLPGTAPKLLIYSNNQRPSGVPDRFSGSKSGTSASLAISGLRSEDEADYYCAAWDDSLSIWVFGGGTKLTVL
notes: used with CH1,2,3 and CL(lambda); also called clone 21A08
Take B4: the dissociation constant Kd came to 2.17 nM in assay [7], 1.24 nM in assay [5] and 0.00927 nM with hPD-1 His-tagged. In addition, the koff in assay [7] amounted to 0.00014 s⁻¹; in [5] it was 8.25e-05 s⁻¹; with hPD-1 His-tagged it was 6.39e-07 s⁻¹. Moreover, the values for the EC50 in assay [3] and in assay [4] were 0.195 nM and 0.243 nM, respectively. Moreover, the figures for the association rate constant (kon) (in [5]; with hPD-1 His-tagged) were 66700 M⁻¹ s⁻¹ and 69000 M⁻¹ s⁻¹, respectively.

B5: Antibody A (antibody, human IgG1, kappa, N297A, V domains shown)
VH: EVQLVQSGAEVKKPGESLKISCKGSGYAFTNYLIEWVRQMPGKGLEWMGVINPGSGGTNYNEKFKGQVTISADKSISTAYLQWSSLKASDTAMYYCARWRGEGYYAYFDVWGQGTTVTVSS
VL: AIRLTQSPSSFSASTGDRVTITCKASQSVDYQGDSYMNWYQQKPGKAPKLLIYAASNLESGVPSRFSGSGSGTDFTLTISSLQSEDFATYYCQQSNEDPYTFGGGTKVEIKR
notes: humanized from antibody NARA1
For B5, in the assay with recombinant human IL-2 [8], the concentration giving a half-maximal response (EC50) amounted to 0.37 nM. In addition, the Kd with recombinant human IL-2 [9] came to 2.1 nM.

B6: QTY065 Fab (Fab)
heavy: EVQLVQSGAEVKKPGESLKISCKGSGYAFTNYLIEWVRQMPGKGLEWMGVINPGSGGTNYNEKFKGQVTISADKSISTAYLQWSSLKASDTAMYYCARWRGEGYYAYFDVWGQGTTVTVSS
light: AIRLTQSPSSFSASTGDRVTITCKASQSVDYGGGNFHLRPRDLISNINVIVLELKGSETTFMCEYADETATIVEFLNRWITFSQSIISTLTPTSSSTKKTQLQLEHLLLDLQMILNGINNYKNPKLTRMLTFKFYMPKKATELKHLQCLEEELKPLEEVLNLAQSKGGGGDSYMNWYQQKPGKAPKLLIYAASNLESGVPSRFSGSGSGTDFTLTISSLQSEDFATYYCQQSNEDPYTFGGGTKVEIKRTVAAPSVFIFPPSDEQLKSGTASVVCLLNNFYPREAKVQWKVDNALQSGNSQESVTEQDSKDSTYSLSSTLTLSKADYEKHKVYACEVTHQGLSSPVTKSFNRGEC
notes: also called Fab fragment of QTY065; not shown: CH1
For B6, the dissociation constant (Kd) in [10] came out at 0.32 nM.
